{
  "source": "patent EP4047016A1",
  "about": "(Université de Strasbourg, dated 2022)",
  "binders": {"B1": {"name": "single-domain antibody directed against Tenascin-C (TNC) Nb3 (VHH)", "VHH": "WLQLVESGGGSVQTGGSLRLSCVVSGYTNSIYTLAWFRQAPGKEREGVAAIGSRNGNTYYDASVKDRFTISLDKAKNTVYLQMNDLKPEDTASYYCAAGSSWDLILQAYAYDYWGQGTQVTVSS", "modifications": "Conjugated to 5 nm colloidal gold in the electron microscopy assay only.", "notes": "also called C3"}, "B2": {"name": "single-domain antibody directed against Tenascin-C (TNC) Nb4 (VHH)", "VHH": "B1 VHH with L2V, G52A, D85G", "modifications": "Conjugated to 5 nm colloidal gold in the electron microscopy assay only.", "notes": "Dromedary VHH made in the E. coli WK6 periplasm and purified by IMAC; Conjugated to 5 nm colloidal gold for electron microscopy; also called C4"}},
  "key": {"[1]": {"target": "T1, recombinant human Tenascin-C (rhTNC) (human)", "T1 construct": "It was purified on a Ni column, but no tag is described; also called recombinant hTNC", "assay": "indirect ELISA on rhTNC, Nb dilutions 5x10^-7 M to 5x10^-12 M"}, "[2]": {"target": "T2, recombinant murine TNC (mTNC) (murine)", "T2 construct": "also called recombinant mTNC", "assay": "isothermal fluorescence titration, fluorescently tagged mTNC 700 nM, Nb 500-3500 nM"}},
  "note": "Changes are numbered by the printed parent chain.",
  "data": [
    {"binder": "B1", "values": [
      {"measurement": "EC50", "setting": "[1]", "result": "~10", "unit": "nM"},
      {"measurement": "Kd", "setting": "[2]", "result": 711, "unit": "nM"}
    ]},
    {"binder": "B2", "values": [
      {"measurement": "EC50", "setting": "[1]", "result": "~5", "unit": "nM"},
      {"measurement": "Kd", "setting": "[2]", "result": 537, "unit": "nM"}
    ]}
  ]
}
